Experimental data published in paper PMC3965691 (Biochemistry, 2011).

T1: HI-2(1-152) (human, UniProt P41236 1-152)
T1 sequence (looked up): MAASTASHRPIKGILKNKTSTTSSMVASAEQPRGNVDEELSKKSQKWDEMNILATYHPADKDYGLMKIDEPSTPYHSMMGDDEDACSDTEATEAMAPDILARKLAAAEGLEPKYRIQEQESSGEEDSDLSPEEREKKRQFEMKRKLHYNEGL

B1: His6-HI-2 (human phosphatase inhibitor-2, wild type, full length) (natural protein, UniProt P41236 1-205, looked up)
chain: MAASTASHRPIKGILKNKTSTTSSMVASAEQPRGNVDEELSKKSQKWDEMNILATYHPADKDYGLMKIDEPSTPYHSMMGDDEDACSDTEATEAMAPDILARKLAAAEGLEPKYRIQEQESSGEEDSDLSPEEREKKRQFEMKRKLHYNEGLNIKLARQLISKDLHDDDEDEEMLETADGESMNTEESNQGSTPSDQQQNKLRSS
B2: HI-2(I68A) (natural protein, human, UniProt P41236 1-205, looked up)
chain: MAASTASHRPIKGILKNKTSTTSSMVASAEQPRGNVDEELSKKSQKWDEMNILATYHPADKDYGLMKADEPSTPYHSMMGDDEDACSDTEATEAMAPDILARKLAAAEGLEPKYRIQEQESSGEEDSDLSPEEREKKRQFEMKRKLHYNEGLNIKLARQLISKDLHDDDEDEEMLETADGESMNTEESNQGSTPSDQQQNKLRSS

Experiments:
[1] = biological target: Pin1 free of GST (thrombin-cleaved GST-Pin1) (human, UniProt Q13526 1-163); assay: SEC
HI-2(I68A) = biological target: B2; assay: pull-down
[2] = biological target: B1; assay: pull-down
HI-2(1-152) = biological target: T1, HI-2(1-152); assay: pull-down

stoichiometry N [1] | binding result [2] | Binder | also measured
1 I-2 per Pin1 (2:2) | – | B1 | –
– | – | GST-Pin1iso (human Pin1 isomerase domain, residues 46-163, fused to GST) (domain or fragment, UniProt Q13526 46-163, looked up) KNGQGEPARVRCSHLLVKHSQSRRPSSWRQEKITRTKEEALELINGYIQKIKSGEEDFESLASQFSDCSSAKARGDLGAFSRGQMQKPFEDASFALRTGEMSGPVFTDSGIHIILRTE | binding result (HI-2(I68A)): binds
– | binds | MADEEKLPPGWEKRMSRSSGRVYYFNHITNASQWERPSGNSSSG (domain or fragment, human, UniProt Q13526 1-44, looked up, phosphoserine at 16 (PKA)) [PKA phosphorylated GST-Pin1ww] | –
1 I-2 per Pin1 (1:1) | – | B2 | –
– | binds | MADEEKLPPGWEKRMSRSSGRVYYFNHITNASQWERPSGNSSSG (domain or fragment, UniProt Q13526 1-44, looked up) [GST-Pin1ww (human Pin1 WW domain, residues 1-44, fused to GST)] | binding result (HI-2(1-152)): binds
